Measured values as given in patent publication US20150044237A1 (CENTRE NATIONAL DE LA RECHERCHE SCIENTIFIQUE, published 2015).
Values joined by “and” are separate entries in the source; they are usually repeats but may differ in a detail not shown here. Identical values can stand only once. Like-named read-outs stand apart in the source and are kept apart here.

B3: D1IgD2FasL (ligand, human)
chain: QKKGAPHDLKCVTNNLQVWNCSWKAPSGTGRGTDYEVCIENRSRSCYQLEKTSIKIPALSHGDYEITINSLHDFGSSTSKFTLNEQNVSLIPDTPEILNLSADFSTSTLYLKWNDRGSVFPHRSNVIWEIKVLRKESMELVKLVTHNTTLNGKDTLHHWSWASDMPLECAIHFVEIRCYIDNLHFSGLEEWSDWSPVKNISWIPDSQTKVFPQDKVILVGSDITFCCVSQEKVLSALIGHTNCPLIHLDGENVAIKIRNISVSASSGTNVVFTTEDNIFGTVIFAGYPPDTPQQLNCETHDLKEIICSWNPGRVTALVGPRATSYTLVESFSGKYVRLKRAEAPTNESYQLLFQMLPNQEIYNFTLNAHNPLGRSQSTILVNITEKVYPHTPTSFKVKDINSTAVKLSWHLPGNFAKINFLCEIEIKKSNSVQEQRNVTIKGVENSSYLVALDKLNPYTLYTFRIRCSTETFWKWSKWSNKKQHLTTEASQKELAELRESTSQMHTASSLEKQIGHPSPPPEKKELRKVAHLTGKSNSRSMPLEWEDTYGIVLLSGVKYKKGGLVINETGLYFVYSKVYFRGQSCNNLPLSHKVYMRNSKYPQDLVMMEGKMMSYCTTGQMWARSSYLGAVFNLTSADHLYVNVSELSLVNFEESQTFFGLYKL
B4: D2FasL (ligand, human)
chain: TPQQLNCETHDLKEIICSWNPGRVTALVGPRATSYTLVESFSGKYVRLKRAEAPTNESYQLLFQMLPNQEIYNFTLNAHNPLGRSQSTILVNITEKVYPHTPTSFKVKDINSTAVKLSWHLPGNFAKINFLCEIEIKKSNSVQEQRNVTIKGVENSSYLVALDKLNPYTLYTFRIRCSTETFWKWSKWSNKKQHLTTEASQKELAELRESTSQMHTASSLEKQIGHPSPPPEKKELRKVAHLTGKSNSRSMPLEWEDTYGIVLLSGVKYKKGGLVINETGLYFVYSKVYFRGQSCNNLPLSHKVYMRNSKYPQDLVMMEGKMMSYCTTGQMWARSSYLGAVFNLTSADHLYVNVSELSLVNFEESQTFFGLYKL
notes: domain: D2
B6: Recombinant Fas-Fc (R&Dsystems) (Fc fusion, UniProt P25445 26-173, looked up)
chain: QVTDINSKGLELRKTVTTVETQNLEGLHHDGQFCHKPCPPGERKARDCTVNGDEPDCVPCQEGKEYTDKAHFSSKCRRCRLCDEGHGLEVEINCTRTQNTKCRCKPNFFCNSTVCEHCDPCTKCEHGIIKECTLTSNTKCKEEGSRSN
notes: not shown: Fc part

Assays:
[1] = biological target: HLA-pfFasL (human); experiment: cell-based or functional assay
[2] = biological target: T1, Fas (CD95/APO-1) on Jurkat cells (human, UniProt P25445 26-335); experiment: cell-based or functional assay
T1 sequence (looked up): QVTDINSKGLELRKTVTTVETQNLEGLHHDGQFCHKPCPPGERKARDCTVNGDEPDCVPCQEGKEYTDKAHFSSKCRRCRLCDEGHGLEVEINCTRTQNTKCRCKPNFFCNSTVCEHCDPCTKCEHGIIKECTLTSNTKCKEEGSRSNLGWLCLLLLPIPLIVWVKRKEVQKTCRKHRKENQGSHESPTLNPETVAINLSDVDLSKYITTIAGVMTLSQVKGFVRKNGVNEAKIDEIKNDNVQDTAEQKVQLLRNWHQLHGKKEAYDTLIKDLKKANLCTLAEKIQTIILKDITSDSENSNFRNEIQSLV

[3] = biological target: T1, Fas (CD95/APO-1) on Jurkat cells; experiment: cell-based or functional assay; remark: listed apart in the source
[4] = biological target: B6; experiment: SPR (BIAcore 3000), Fas-Fc immobilised on CM5 chip
Method: (§1) The experiments were carried out on a BIAcore 3000 optical biosensor (GE healthcare, Chalfont, UK). The FasL chimeras were produced as COS supernatants in Opti-MEM medium, concentrated 100 times, dialyzed against PBS and sterilized by filtration. Recombinant Fas-Fc (R&Dsystems, Minneapolis, Minn.) was covalently coupled to a carboxymethyl dextran flow cell (CM5, BIAcore) following the manufacturer's recommendations. The level of immobilization was 2,000 resonance units (RU). Binding of the FasL chimeras was assayed at concentrations ranging from 0.2 to 100 nM for IgFasL, 0.2 to 44 nM for cFasL, 0.2 to 37.5 nM for D2FasL, and 0.25 to 8 nM for D1IgD2FasL, in Hepes-buffered saline, at a 30 μl/min flow rate. Association was monitored for 5 min before initiating the dissociation phase for another 11 min with Hepes-buffered saline. The flow cell was regenerated with 4M MgCl2. The sensorgrams were analyzed using the BIAeval 4.1 software (BIAcore). The background of the Opti-MEM medium was at 30 RU.
(§2) The affinity of the FasL chimeras for Fas was measured using the surface plasmon resonance Biacore® method, against recombinant Fas-Fc immobilized on a chip. IgFasL, D2FasL, D1IgD2FasL and sFasL as a control, were produced as supernatants in COS cells cultured in serum-free medium, concentrated 100 times, and dialysed against PBS.

[5] = biological target: B6; experiment: SPR (BIAcore 3000), Fas-Fc immobilised on CM5 chip, FasL construct as analyte
Method: as §1, §2

[6] = biological target: B6; experiment: SPR (BIAcore), Fas-Fc immobilised on chip, FasL construct as analyte; reference cFasL
Method: as §1, §2

[7] = biological target: T1, Fas (CD95/APO-1) on Jurkat cells; experiment: cell-based or functional assay; remark: listed apart in the source
[8] = biological target: B4; experiment: SPR (BIAcore 3000), Fas-Fc immobilised on CM5 chip, FasL construct as analyte
Method: as §1, §2

[9] = biological target: B3; experiment: as above
Method: as §1, §2

[10] = biological target: T2, cleaved FasL (cFasL) (human, UniProt P48023 127-281); experiment: as above
T2 construct: range 127-281; Supernatant of COS cells transfected with wild-type FasL; also called spontaneously cleaved membrane FasL; metalloprotease-cleaved FasL
T2 sequence (looked up): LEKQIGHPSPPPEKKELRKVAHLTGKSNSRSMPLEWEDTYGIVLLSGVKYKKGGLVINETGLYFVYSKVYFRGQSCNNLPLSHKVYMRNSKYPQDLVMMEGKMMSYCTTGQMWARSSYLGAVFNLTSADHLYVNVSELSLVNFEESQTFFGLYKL
Method: as §1, §2

anti-Flag mAb (clone M2) (antibody)
enhancement of the cytotoxicity of HLA-pfFasL on CD32+ L-cells by pre-formed immune complexes [1]: 2.5 fold

anti-β2 microglobulin mAb (clone B2M-01) (antibody)
enhancement of the cytotoxicity of HLA-pfFasL on CD32+ L-cells by pre-formed immune complexes [1]: 2.5 fold

Flag-tagged sFasL (sfFasL) (from UniProt P48023 108-281) (ligand)
cytotoxicity EC50 on the Jurkat cell line (MTT assay) [2]: > 3 µg/mL
cytotoxicity on Jurkat cells, activity against pfFasL (fold less active than pfFasL) [2]: > 5000

Anti-human Fas agonistic mAb 7C11 (IgM) (antibody)
concentration required to kill 50% of the Jurkat cells [2]: 2 ng/mL

B1: polymeric Flag-tagged soluble FasL (pfFasL) (ligand, not shown: small tags and cut ends)
chain: IPDSQTKVFPQDKVILVGSDITFCCVSQEKVLSALIGHTNCPLIHLDGENVAIKIRNISVSASSGTNVVFTTEDNIFGTVISRALQKELAELRESTSQMHTASSLEKQIGHPSPPPEKKELRKVAHLTGKSNSRSMPLEWEDTYGIVLLSGVKYKKGGLVINETGLYFVYSKVYFRGQSCNNLPLSHKVYMRNSKYPQDLVMMEGKMMSYCTTGQMWARSSYLGAVFNLTSADHLYVNVSELSLVNFEESQTFFGLYKL
cytotoxicity EC50 on the Jurkat cell line (MTT assay) [3]: 0.6 ng/mL and 15.5 pM

B2: IgFasL (ligand)
chain: IPDSQTKVFPQDKVILVGSDITFCCVSQEKVLSALIGHTNCPLIHLDGENVAIKIRNISVSASSGTNVVFTTEDNIFGTVISRALQKELAELRESTSQMHTASSLEKQIGHPSPPPEKKELRKVAHLTGKSNSRSMPLEWEDTYGIVLLSGVKYKKGGLVINETGLYFVYSKVYFRGQSCNNLPLSHKVYMRNSKYPQDLVMMEGKMMSYCTTGQMWARSSYLGAVFNLTSADHLYVNVSELSLVNFEESQTFFGLYKL
notes: also called pFasL; polymeric FasL
fold difference of Kd against cFasL [4]: 6 fold
Kd [5]: 11.6 nM
koff [5]: 0.00041 s⁻¹
kon [5]: 25000 M⁻¹ s⁻¹
fold affinity against cFasL (Kd ratio) [6]: 6 fold

B3
cell death of Jurkat cells (MTT assay), potency against IgFasL [7]: 125 fold less potent than IgFasL

B4
cell death of Jurkat cells (MTT assay), potency against IgFasL [7]: 12.5 fold less potent than IgFasL
fold difference of Kd against cFasL [4]: 2 fold
fold affinity against cFasL (Kd ratio) [6]: 2 fold

B5: soluble FasL (sFasL) (ligand)
chain: QKELAELRESTSQMHTASSLEKQIGHPSPPPEKKELRKVAHLTGKSNSRSMPLEWEDTYGIVLLSGVKYKKGGLVINETGLYFVYSKVYFRGQSCNNLPLSHKVYMRNSKYPQDLVMMEGKMMSYCTTGQMWARSSYLGAVFNLTSADHLYVNVSELSLVNFEESQTFFGLYKL
cytotoxicity on Jurkat cells, activity against pfFasL [7]: ≥ 5000 fold less active than pfFasL
cytotoxicity EC50 on the Jurkat cell line (MTT assay) [3]: > 3 µg/mL

B6
Kd [8]: 38.5 nM
koff [8]: 0.006 s⁻¹
kon [8]: 160000 M⁻¹ s⁻¹
Kd [9]: 25.6 nM
koff [9]: 0.0033 s⁻¹
kon [9]: 130000 M⁻¹ s⁻¹
Kd [10]: 69.4 nM
koff [10]: 0.0059 s⁻¹
kon [10]: 84000 M⁻¹ s⁻¹
